Publication PMC11790492 (Nature Microbiology, 2024)

Legend:
[1] = molecular target: KorB (plasmid RK2, expressed in Escherichia coli) (UniProt P07674); experiment: BLI; details: BLI and C-trap buffers not given in the material, crystals 10 mM Tris-HCl, 150 mM NaCl pH 8.0 then 1.95 M ammonium sulfate, 0.1 M NaOAc pH 4.6, Eσ70 binding …
AF647-KorA (plasmid RK2) = experiment: optical tweezers residence time; details: BLI and C-trap buffers not given in the material, crystals 10 mM Tris-HCl, 150 mM NaCl pH 8.0 then 1.95 M ammonium sulfate, 0.1 M NaOAc pH 4.6, Eσ70 binding …
[2] = test system: AF647-KorA (Y84A) (plasmid RK2); experiment: optical tweezers residence time; details: unlabelled KorB, 2 mM CTP; BLI and C-trap buffers not given in the material; crystals 10 mM Tris-HCl, 150 mM NaCl pH 8.0 then 1.95 M ammonium sulfate, 0.1 M NaOAc pH 4.6; Eσ70 binding …
KorB [3] = molecular target: T1, KorB (Escherichia coli, UniProt P07674); experiment: ITC; […] Å co-crystal structure (ligand modelled as CTP, sulfur position not assignable); format: binding; parameters: ITC: C-terminally His-tagged KorB; crystal: KorB∆N30∆CTD (lacks the 30 N-terminal amino acids, the linker and the CTD)
[4] = molecular target: KorB (wild type), C-terminally His-tagged (plasmid RK2 (Escherichia coli)) (UniProt P07674)
KorB [5] = molecular target: T1, KorB; experiment: ITC (weak, affinity could not be fitted); format: binding; parameters: C-terminally His-tagged KorB (WT)
ParB = molecular target: T2, ParB (Caulobacter vibrioides, UniProt P0CAV8); experiment: CTP hydrolysis rate by phosphate release assay (EnzChek), […] CTP; format: biochemical
T2 sequence (P0CAV8 1-304): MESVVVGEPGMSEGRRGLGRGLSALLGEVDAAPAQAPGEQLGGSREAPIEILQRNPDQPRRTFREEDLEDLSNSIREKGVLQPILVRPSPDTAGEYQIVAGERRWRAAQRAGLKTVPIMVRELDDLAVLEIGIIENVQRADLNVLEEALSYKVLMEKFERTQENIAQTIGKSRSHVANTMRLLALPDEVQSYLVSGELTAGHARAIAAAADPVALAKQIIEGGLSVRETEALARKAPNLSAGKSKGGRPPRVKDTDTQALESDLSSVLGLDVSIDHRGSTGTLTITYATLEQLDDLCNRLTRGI

Noc = molecular target: T3, Noc (Bacillus subtilis, UniProt P37524); experiment: as above; format: biochemical
T3 sequence (P37524 1-283): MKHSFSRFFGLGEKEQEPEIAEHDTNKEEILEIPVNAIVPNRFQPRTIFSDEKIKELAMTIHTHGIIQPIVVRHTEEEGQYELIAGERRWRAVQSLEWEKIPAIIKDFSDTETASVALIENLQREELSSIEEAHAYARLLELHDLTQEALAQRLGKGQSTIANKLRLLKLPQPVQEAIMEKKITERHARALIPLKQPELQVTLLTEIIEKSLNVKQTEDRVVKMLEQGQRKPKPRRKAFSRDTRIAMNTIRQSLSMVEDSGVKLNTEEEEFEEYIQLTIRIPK

KorB [6] = molecular target: T1, KorB; experiment: ITC; also OB DNA-stimulated CTPase assay; format: binding; parameters: C-terminally His-tagged KorB (WT)
KorBΔN30ΔCTD;KorA = KorBΔN30ΔCTD;KorA (plasmid RK2;plasmid RK2, UniProt P07674;P03052 31-252;1-101, |); experiment: X-ray crystallography; no CTPγS added; sulfates; BLI and C-trap buffers not given in the material; crystals 10 mM Tris-HCl, 150 mM NaCl pH 8.0 then 1.95 M ammonium sulfate, 0.1 M NaOAc pH 4.6; Eσ70 binding and; details: protein: recombinant;recombinant; tags: His-tagged;C-terminal His6 (pET21b); chain copies: 2;2; blunt, self-complementary, 2 copies
[7] = molecular target: the molecule itself; experiment: cross-linking; BMOE (1 mM) cysteine cross-linking of 8 µM KorB variant dimer ± 1 mM CTP or CTPγS ± 24 bp OB or scrambled DNA; 10 mM Tris–HCl pH 7.4, 100 mM NaCl, 1 mM MgCl2; room temperature; SDS–PAGE, band quantification
E. coli RNAP core;σ70 = E. coli RNAP core;σ70 (Escherichia coli;Escherichia coli, UniProt P0A7Z4;P0A8V2;P0A8T7;P0A800;P00579 1-329;1-1342;1-1407;2-91;1-613, |); experiment: native MS; no KorA/KorB; BLI and C-trap buffers not given in the material; crystals 10 mM Tris-HCl, 150 mM NaCl pH 8.0 then 1.95 M ammonium sulfate, 0.1 M NaOAc pH 4.6; Eσ70 binding and; details: protein: recombinant;recombinant; tags: His10-PPX;His-SUMO, cleaved; chain copies: 2;1;1;1;1; blunt
[8] = molecular target: the molecule itself; experiment: crystal structure; KorBΔN30ΔCTD–KorA complex with 14 bp OA DNA duplex, no CTPγS added; 2.7 Å; two KorA, two KorB subunits and one DNA duplex in the asymmetric unit
[9] = molecular target: T4, KorB (wild type), C-terminally His-tagged (plasmid RK2 (Escherichia coli), UniProt P07674 1-358); experiment: cell-based or functional assay
T4 sequence (looked up): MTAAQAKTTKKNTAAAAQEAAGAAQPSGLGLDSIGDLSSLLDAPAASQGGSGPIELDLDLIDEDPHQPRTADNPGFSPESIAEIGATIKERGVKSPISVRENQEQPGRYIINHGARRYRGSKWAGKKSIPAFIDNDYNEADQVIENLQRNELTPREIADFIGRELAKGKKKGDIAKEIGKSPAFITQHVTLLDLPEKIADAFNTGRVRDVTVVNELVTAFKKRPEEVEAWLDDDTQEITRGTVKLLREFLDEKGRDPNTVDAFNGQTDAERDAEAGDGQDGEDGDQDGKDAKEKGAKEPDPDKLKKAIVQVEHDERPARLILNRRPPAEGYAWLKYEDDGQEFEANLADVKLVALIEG

[10] = molecular target: T5, KorB (wild type), C-terminally His-tagged (plasmid RK2 (Escherichia coli), UniProt P07674 1-358); experiment: ITC
T5 chain: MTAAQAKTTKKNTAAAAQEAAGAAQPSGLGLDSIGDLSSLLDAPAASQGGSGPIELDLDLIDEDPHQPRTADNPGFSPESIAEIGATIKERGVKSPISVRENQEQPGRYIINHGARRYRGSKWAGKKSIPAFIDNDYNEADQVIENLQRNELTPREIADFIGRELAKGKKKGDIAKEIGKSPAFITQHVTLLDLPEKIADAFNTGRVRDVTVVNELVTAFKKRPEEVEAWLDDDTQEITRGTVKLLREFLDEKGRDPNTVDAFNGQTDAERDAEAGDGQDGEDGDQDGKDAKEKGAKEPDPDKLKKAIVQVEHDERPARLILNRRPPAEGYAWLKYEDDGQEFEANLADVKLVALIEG

Question: Which results are given for 40-bp OB DNA?
Answer: Kd ([1]; 1 mM CTP): 60 µM; Kd ([1]; no CTP): 0.14 µM

Question: Which results are given for “C-trap DNA 8xOB + 1xOA (22,394 bp; also ligated as 44.8 kb tandem)”?
Answer: binding (AF647-KorA (plasmid RK2); unlabelled KorB (F249A), 2 mM CTP): 3.07 s; binding (AF647-KorA (plasmid RK2); unlabelled KorB, 2 mM CTP): 10.1 s; binding (AF647-KorA (plasmid RK2); unlabelled KorB, no CTP): 2.61 s; binding [2]: 3.72 s

Question: How did the Kd (KorB [3]) turn out when `Nc1ccn([C@@H]2O[C@H](COP(=O)(O)OP(=O)(O)OP(O)(O)=S)[C@@H](O)[C@H]2O)c(=O)n1` [CTPɣS, cytidine-5′-(3-thiotriphosphate)] was run?
Answer: 0.4 ± 0.1 µM

Question: With “AF647–KorA: KorA with an extra C-terminal cysteine, C-terminally His-tagged, labelled with Alexa Fluor 647 (from UniProt P03052) (natural protein)” as the molecule, how does the change of the residence time of AF647–KorA at OA on DNA (optical tweezers) with unlabelled KorB and CTP, against KorA with or without apo-KorB [4] read?
Answer: 4.5 fold

Question: For `Nc1ccn([C@@H]2O[C@H](COP(=O)(O)OP(=O)(O)O)[C@@H](O)[C@H]2O)c(=O)n1` [CDP], which “ITC (weak, affinity could not be fitted)” value (KorB [5]) is on record?
Answer: KorB binding to CDP was qualitatively much weaker than to CTP, but the data precluded the estimation

Question: With `Nc1ccn([C@@H]2O[C@H](COP(=O)(O)OP(=O)(O)OP(=O)(O)O)[C@@H](O)[C@H]2O)c(=O)n1` [CTP] as the molecule, how does the “CTP hydrolysis rate by phosphate release assay (EnzChek), 1 mM CTP” value (ParB) read?
Answer: CTP hydrolysis rates of KorB, C. crescentus ParB, and B. subtilis Noc were measured by continuous detection

Question: What about the “CTP hydrolysis rate by phosphate release assay (EnzChek), 1 mM CTP” value (Noc) of the same molecule?
Answer: CTP hydrolysis rates of KorB, C. crescentus ParB, and B. subtilis Noc were measured by continuous detection

Question: And the Kd (KorB [6])?
Answer: 4.5 ± 0.5 µM

B1: 14 bp OA (dsDNA)
DNA 1: TGTTTAGCTAAACA
DNA 2: TGTTTAGCTAAACA
Question: Does B1 bind (KorBΔN30ΔCTD;KorA)?
Answer: binds

B2: KorB (K351C), C-terminally His-tagged (natural protein)
chain: MTAAQAKTTKKNTAAAAQEAAGAAQPSGLGLDSIGDLSSLLDAPAASQGGSGPIELDLDLIDEDPHQPRTADNPGFSPESIAEIGATIKERGVKSPISVRENQEQPGRYIINHGARRYRGSKWAGKKSIPAFIDNDYNEADQVIENLQRNELTPREIADFIGRELAKGKKKGDIAKEIGKSPAFITQHVTLLDLPEKIADAFNTGRVRDVTVVNELVTAFKKRPEEVEAWLDDDTQEITRGTVKLLREFLDEKGRDPNTVDAFNGQTDAERDAEAGDGQDGEDGDQDGKDAKEKGAKEPDPDKLKKAIVQVEHDERPARLILNRRPPAEGYAWLKYEDDGQEFEANLADVCLVALIEG
Question: Does B2 bind [7]?
Answer: binds

B3: PkorA 100 bp (nMS) (dsDNA)
DNA 1: GTTACGCCAAGGACGAGTTTTAGCGGCTAAAGGTGTTGACGTGCGAGAAATGTTTAGCTAAACTTCTCTCATGTGCTGGCGGCTGTCACCGCTATGTTCA
DNA 2: TGAACATAGCGGTGACAGCCGCCAGCACATGAGAGAAGTTTAGCTAAACATTTCTCGCACGTCAACACCTTTAGCCGCTAAAACTCGTCCTTGGCGTAAC
Question: Does B3 bind (E. coli RNAP core;σ70)?
Answer: binds

B4: KorA (wild type), C-terminally His-tagged (natural protein, plasmid RK2 (Escherichia coli))
chain: MKKRLTESQFQEAIQGLEVGQQTIEIARGVLVDGKPQATFATSLGLTRGAVSQAVHRVWAAFEDKNLPEGYARVTAVLPEHQAYIVRKWEADAKKKQETKR
notes: KorA of plasmid RK2, wild type; cysteine-less; expected monomer mass in nMS 12,825.6 Da; also called KorA (WT); KorA–(his)6; source: E. coli Rosetta (BL21 DE3) pLysS, pET21b, purified (HisTrap, Heparin, Superdex 75); not shown: His6, C-terminal, kept
Question: What does the source list for B4?
Answer: binding result [8]: binds; fold of repression of a promoter–xylE reporter (OB 1.5 kb upstream of the core promoter, OA over the −10 element) in E. coli with WT KorA and WT KorB co-expressed [9]: ~38000 fold; Kd [10]: 4.2 µM
